Source: patent EP0638644A1 (F. HOFFMANN-LA ROCHE AG, dated 1995)

Legend:
[1] = target: T1, natural human IL-12 receptor on IL-12R positive human cells (human, UniProt P42701 24-662); assay: steady state 125I-IL-12 binding to Kit-225 cells, Scatchard, site 2 of 3
T1 construct: whole, on cells; IL-12 sees up to 3 classes of sites on these cells; also called natural IL-12R

[2] = target: T1, natural human IL-12 receptor on IL-12R …; assay: steady state 125I-IL-12 binding to K6 cells, Scatchard, site 1 of 3
[3] = target: T1, natural human IL-12 receptor on IL-12R …; assay: steady state 125I-IL-12 binding to Kit-225 cells, Scatchard, site 3 of 3
[4] = target: T1, natural human IL-12 receptor on IL-12R …; assay: steady state 125I-IL-12 binding to YT cells, Scatchard, site 2 of 2
[5] = target: T2, recombinant human IL-12 receptor (clone No. 5, SEQ ID NO:2) expressed in COS cells (human); assay: equilibrium binding of labelled human IL-12 to COS cells expressing clone 5, Scatchard, single site (Figure 19A)
T2 construct: 662 amino acid precursor; signal peptide cleavage is only predicted (after Gln20, Ala23 or Cys24); On COS cells present as monomers and disulfide-bonded dimers/oligomers; also called rIL-12R; human rIL-12R

[6] = target: T1, natural human IL-12 receptor on IL-12R …; assay: steady state 125I-IL-12 binding to YT cells, Scatchard, site 1 of 2
[7] = target: T1, natural human IL-12 receptor on IL-12R …; assay: steady state 125I-IL-12 binding to PHA-PBMC (5-7 days), Scatchard, site 3 of 3
[8] = target: T2, recombinant human IL-12 receptor (clone …); assay: steady state binding of 125I-IL-12 to COS cells expressing rIL-12R, Scatchard (Figure 4A)
[9] = target: T1, natural human IL-12 receptor on IL-12R …; assay: steady state 125I-IL-12 binding to K6 cells, Scatchard, site 3 of 3
[10] = target: T1, natural human IL-12 receptor on IL-12R …; assay: steady state 125I-IL-12 binding to K6 cells, Scatchard, site 2 of 3
[11] = target: T3, human IL-12 receptor subunit stably expressed on murine CTLL cells (human); assay: IL-12 binding to murine CTLL cells stably expressing the IL-12 receptor subunit
T3 construct: CTLL transfectants express only receptor subunit monomers; also called CTLL transfectant; CTLL cell transfectant

[12] = target: T1, natural human IL-12 receptor on IL-12R …; assay: steady state 125I-IL-12 binding to Kit-225 cells, Scatchard, site 1 of 3
[13] = target: T1, natural human IL-12 receptor on IL-12R …; assay: steady state 125I-IL-12 binding to PHA-PBMC (5-7 days), Scatchard, site 2 of 3
[14] = target: T4, detergent solubilized IL-12R from IL-12R positive human cells (human, UniProt P42701 24-662); assay: steady state binding of 125I-IL-12 to IL-12R immunoprecipitated by immobilized 2-4E6 from detergent extract of K6 cells, Scatchard
T4 construct: Whole natural receptor protein in detergent extract, not a truncated soluble form; also called soluble IL-12R; approximately 90 kDa protein

[15] = target: T1, natural human IL-12 receptor on IL-12R …; assay: steady state 125I-IL-12 binding to PHA-PBMC (5-7 days), Scatchard, site 1 of 3

Kd [1]: 0.21 nM
Kd [2]: 0.016 nM
Kd [3]: 2.36 nM
Kd [4]: 0.109 nM
Kd [5]: 3.4 nM
Kd [6]: 0.006 nM
Kd [7]: 1.8 nM
Kd [8]: 2 to 6 nM
Kd [9]: 2.4 nM
Kd [10]: 0.057 nM
Kd [11]: ≥ 50 nM
Kd [12]: 0.023 nM
Kd [13]: 0.084 nM
Kd [14]: 0.188 nM
Kd [15]: 0.018 nM
B1: Recombinant human IL-12 (ligand)
chain 1: RNLPVATPDPGMFPCLHHSQNLLRAVSNMLQKARQTLEFYPCTSEEIDHEDITKDKTSTVEACLPLELTKNESCLNSRETSFITNGSCLASRKTSFMMALCLSSIYEDLKMYQVEFKTMNAKLLMDPKRQIFLDQNMLAVIDELMQALNFNSETVPQKSSLEEPDFYKTKIKLCILLHAFRIRAVTIDRVMSYLNAS
chain 2: IWELKKDVYVVELDWYPDAPGEMVVLTCDTPEEDGITWTLDQSSEVLGSGKTLTIQVKEFGDAGQYTCHKGGEVLSHSLLLLHKKEDGIWSTDILKDQKEPKNKTFLRCEAKNYSGRFTCWWLTTISTDLTFSVKSSRGSSDPQGVTCGAATLSAERVRGDNKEYEYSVECQEDSACPAAEESLPIEVMVDAVHKLKYENYTSSFFIRDIIKPDPPKNLQLKPLKNSRQVEVSWEYPDTWSTPHSYFSLTFCVQVQGKSKREKKDRVFTDKTSATVICRKNASISVRAQDRYYSSSWSEWASVPCS
modifications: ¹²⁵I label (Iodogen method) where used as tracer
notes: 75-KDa heterodimer of p35 and p40; also called HuIL-12; HUIL-12
